Reference: patent US20060063228A1 (Pfizer, published 2006)
Changes are numbered by the printed parent chain. Names may count otherwise.

Legend:
recombinant murine IL-13 = molecular target: T1, recombinant murine IL-13 (murine, UniProt P20109 19-131, limits assumed); assay: competition ELISA; FLAG-human IL-13 captured on anti-FLAG M2 plates and detected with biotinylated mAb13.2 and streptavidin-peroxidase; soluble IL-13 added as competitor of FLAG-human IL-13
T1 sequence (looked up): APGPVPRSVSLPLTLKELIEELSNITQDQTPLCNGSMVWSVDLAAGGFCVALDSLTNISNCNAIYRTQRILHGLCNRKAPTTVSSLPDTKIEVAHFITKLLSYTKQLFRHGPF
Protocol: (§1) Several measures were taken to confirm that the murine monoclonal antibody isolated in Example 1.1, i.e., mAb13.2, binds with high affinity and specificity to human IL-13. First, BIACORE™ analyses of three monoclonal antibodies to human IL-13 (mAb13.2, mAb13.4, and mAb13.9) were performed using a 69 RU streptavidin chip to which biotinylated IL-13 had been immobilized. […] Upon buffer exchange, dissociation was slow (FIG. 1). Second, BIACORE™ analysis of mAb13.2 was performed using a Biacore chip to which mAb13.2 had been immobilized. Different concentrations of IL-13 were passed over the chip. Again, rapid binding and slow dissociation was shown (FIG. 2). Third, analysis by ELISA determined that mAb13.2 bound to all forms of human IL-13 tested, including native IL-13 derived from cord blood T cells (FIG. 3). Plates were coated with anti-FLAG™ M2 antibody. The binding of FLAG™-human IL-13 was detected with biotinylated mAb13.2 and streptavidin-peroxidase. […] There was no detectable binding of mAb13.2 to recombinant murine IL-13 (FIG. 3). To confirm the results found by ELISA, the monoclonal antibody, mAb13.2, was coated onto a Biacore chip, and solutions containing recombinant human IL-13 or a polymorphic form of IL-13 (ARG variant), which is expressed at high frequency in patients suffering from asthma (Heinzmann et al. (2000) Hum. Mol. Genet. 9:594), were passed over the chip.

FLAG-human IL-13 [1] = molecular target: T2, FLAG-human IL-13 (human, UniProt P35225 34-146); assay: competition ELISA; human IL-13-FLAG immobilized with anti-FLAG antibody, detected with biotinylated mAb13.2; unlabeled antibody varied
T2 construct: Captured on ELISA plates by anti-FLAG M2 antibody; order of tag and IL-13 is not certain; also called IL-13-FLAG; human IL-13-FLAG; not shown: FLAG tag
T2 sequence (P35225 other isoform, or with tags, fused parts or gaps limits assumed): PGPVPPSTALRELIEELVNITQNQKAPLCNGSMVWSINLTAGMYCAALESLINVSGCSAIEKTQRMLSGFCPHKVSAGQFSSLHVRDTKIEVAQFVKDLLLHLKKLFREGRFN
Protocol: The chimeric antibody, ch13.2, was tested for IL-13 binding. […] Chimeric antibody, ch13.2, was able to competitively bind to IL-13 similarly to mAb13.2 (FIG. 14A). In another test, human peripheral blood monocytes were treated overnight with IL-13 to induce CD23 expression in the presence of various concentrations of mouse mAb13.2 or ch13.2.

recombinant human IL-13 [2] = molecular target: T3, recombinant human IL-13 (human, UniProt P35225 34-146); assay: Biacore; biotinylated IL-13 immobilized on a 69 RU streptavidin (SA) chip, antibody passed over the chip
T3 construct: also called biotinylated IL-13; rec human IL-13
T3 sequence (P35225 other isoform, or with tags, fused parts or gaps): as the sequence (P35225 other isoform, or with tags, fused parts or gaps limits assumed) above
Protocol: as §1

recombinant human IL-13 [3] = molecular target: T3, recombinant human IL-13; assay: Biacore; mAb13.2 immobilized on the chip, dose range of human IL-13 passed over
Protocol: as §1

recombinant human IL-13 [4] = molecular target: T3, recombinant human IL-13; assay: cell-based or functional assay
recombinant human IL-13 [5] = molecular target: T3, recombinant human IL-13; assay: competition ELISA; competitor mAb13.2
FLAG-human IL-13 [6] = molecular target: T2, FLAG-human IL-13; assay: competition ELISA; IL-13-FLAG immobilized with anti-FLAG antibody, detected with biotinylated mAb13.2; unlabeled antibody varied
[7] = molecular target: T4, IL-13 captured by IL-13Rα2 on the surface of A375 human melanoma cells (human, UniProt Q14627 27-380); assay: flow cytometry; A375 cells pre-incubated with 3 ng/ml hu IL13, stained with biotinylated h13.2v2
T4 construct: whole, on cells; Recombinant human IL-13 (3 ng/ml, or 10 ng/ml for ADCC) contacted to A375 cells; also called IL-13-loaded A375 cells; cells expressing IL-13Rα2
T4 sequence (chain, as listed by the source, chain 1 of 2): as the sequence (P35225 other isoform, or with tags, fused parts or gaps limits assumed) above
T4 sequence (Q14627 27-380, chain 2 of 2): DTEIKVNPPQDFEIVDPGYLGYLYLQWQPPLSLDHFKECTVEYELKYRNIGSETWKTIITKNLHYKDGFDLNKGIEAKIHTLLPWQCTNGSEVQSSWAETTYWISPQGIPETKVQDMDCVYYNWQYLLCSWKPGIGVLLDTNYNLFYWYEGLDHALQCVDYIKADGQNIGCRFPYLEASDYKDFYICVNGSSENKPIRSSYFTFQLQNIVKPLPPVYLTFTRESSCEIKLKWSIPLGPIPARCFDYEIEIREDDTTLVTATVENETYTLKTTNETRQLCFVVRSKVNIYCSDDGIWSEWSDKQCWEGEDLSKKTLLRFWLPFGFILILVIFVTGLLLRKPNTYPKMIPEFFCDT
Description: The cell signaling form of the IL-13 receptor, which includes the IL-13Rα1 and IL-4Rα polypeptides, is found on the surface of cell types that respond to the cytokine. IL-13Rα2 is not typically expressed on the surface of IL-13-responsive cells, but has been reported on tumors of the brain, head, and neck (Kawakami et al. (2003) Clin. Cancer Res. 9:6381-8; Mintz et al. (2002) Neoplasia 4:388-99; Liu et al. (2000) Cancer Immunol. Immunother. 49:319-24). IL-13Rα2 expression may also be induced on IFNγ-treated primary human monocytes (Daines et al. (2002) J. Biol. Chem. 277:10387-93), or TNFα- or IL-13-treated primary human fibroblasts (Yoshikawa et al. (2003) Biochem. Biophys. Res. Commun. 312:1248-55). This receptor is not competent to mediate signaling responses to IL-13 (Kawakami et al. (2001) Blood 97:2673-9), but instead appears to act as a decoy receptor, competing for productive IL-13 interactions with IL-13Rα1 (Feng et al. (1998) Lab. Invest. 78:591-602). IL-13Rα2 has a high affinity for IL-13 (Andrews et al. (2002) J. Biol. Chem. 277:46073-8), and appears to interact primarily with the C-terminal region of the cytokine (Madhankumar et al. (2002) J. Biol. Chem. 277:43194-205), which is not predicted to include the h13.2v2 binding site. Therefore, it was examined whether h13.2v2 could interact with IL-13 captured by IL-13Rα2 on the cell surface. […]

recombinant human IL-13 [8] = molecular target: T3, recombinant human IL-13; assay: Biacore; h13.2v2 immobilized on the chip, dose range of human IL-13 passed over

B1: murine monoclonal antibody mAb13.2 (antibody, V domains shown)
VH: EVKLVESGGGLVKPGGSLKLSCAASGFTFISYAMSWVRQTPEKRLEWVASISSGGNTYYPDSVKGRFTISRDNARNILYLQMSSLRSEDTAMYYCARLDGYYFGFAYWGQGTTVTVSS
VL: DIVLTQSPASLAVSLGQRATISCKASESVDNYGKSLMHWYQQKPGQSPKLLIYRASNLESGIPARFSGSGSRTDFTLTINPVEADDVATYYCQQSNEDPWTFGGGTKLEIK
notes: also called mouse mAb13.2; biotinylated mAb13.2
Question: What does the source list for B1?
Answer: binding result (recombinant murine IL-13): no binding (tested: about 3000 ng/ml); IC50 (read off the curve) (FLAG-human IL-13 [1]): ~1 nM; Ka (recombinant human IL-13 [2]): 4e+10 M⁻¹; Kd (recombinant human IL-13 [2]): 0.025 nM; koff (recombinant human IL-13 [2]): 2.7e-06 s⁻¹; kon (recombinant human IL-13 [2]): 110000 M⁻¹ s⁻¹; Ka (recombinant human IL-13 [3]): 2.1e+09 M⁻¹; Kd (recombinant human IL-13 [3]): 0.47 nM; IC50 (read off the curve), TF1 proliferation (recombinant human IL-13 [4]): ~0.3 nM

B2: chimeric mAb13.2 antibody (ch13.2) (antibody, human IgG1, kappa, V domains shown)
VH: B1 VH
VL: DIVLTQSPASLAVSLGQRATISCKASESVDNYGKSLMHWYQQKPGQSPKLLIYRASNLESGIPARFSGSGSRTDFTLTINPVEADDVATYYCQQSNEDPWTFGGGTKLEIKR
Question: With B2 as the binder, how does the “IC50 (read off the curve)” value (FLAG-human IL-13 [1]) read?
Answer: ~1 nM

B3: partially humanized mAb13.2 (h13.2v1) (antibody, human IgG1, kappa, V domains shown)
VH: EVKLVESGGGLVQPGGSLRLSCAASGFTFISYAMSWVRQAPGKGLEWVASISSGGNTYYPDSVKGRFTISRDNAKNSLYLQMNSLRAEDTAVYYCARLDGYYFGFAYWGQGTLVTVSS
VL: DIQLTQSPSSLSASVGDRVTITCKASESVDNYGKSLMHWYQQKPGKAPKLLIYRASNLESGVPSRFSGSGSRTDFTLTISSLQPEDFATYYCQQSNEDPWTFGGGTKVEIKR
notes: Human IgG1 mutated (L234A/G237A), human kappa; also called hu13.2 V1
Question: Does B3 bind (recombinant human IL-13 [5])?
Answer: binds

Question: Does B3 bind (FLAG-human IL-13 [6])?
Answer: binds

B4: fully humanized mAb13.2 (h13.2v3) (antibody, human IgG1, kappa, V domains shown)
VH: B3 VH with K3Q, Q13K, A49S, L113T
VL: B2 VL with L15P, S22T, S47P, I62V, R72G, D85N, V87T, T89N, L108V
Question: Does B4 bind (recombinant human IL-13 [5])?
Answer: binds

B5: fully humanized mAb13.2 (h13.2v2) (antibody, human IgG1, kappa, V domains shown)
VH: B3 VH with K3Q
VL: B3 VL with L4M, R72G
notes: Human IgG1 mutated (L234A/G237A), human kappa; also called hu13.2 V2; biotinylated h13.2v2
Question: Does B5 bind [7]?
Answer: binds

Question: What about the Ka (recombinant human IL-13 [8]) of the same binder?
Answer: 9.3e+09 M⁻¹

Question: What about the Kd (recombinant human IL-13 [8]) of the same binder?
Answer: 0.11 nM
